Columns and labels:
GM^CBM21 = target: T1, GM^CBM21 (Oryctolagus cuniculus, UniProt Q00756); test: ITC; format: binding
T1 sequence (Q00756 102-237): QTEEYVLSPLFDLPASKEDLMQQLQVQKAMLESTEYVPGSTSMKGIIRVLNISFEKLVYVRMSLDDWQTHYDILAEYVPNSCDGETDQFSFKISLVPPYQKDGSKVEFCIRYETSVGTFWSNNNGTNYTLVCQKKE

[1] = target: PP1α_(7–300) (as crystallised with GM^64–93 and microcystin-LR) (UniProt P62136 7-300); test: crystal structure
His6-tagged PP1α_(7–330) [2] = target: T2, His6-tagged PP1α_(7–330) (UniProt P62136 7-330); test: ITC
His6-tagged PP1α_(7–330) [3] = target: T2, His6-tagged PP1α_(7–330); test: SPR
His6-tagged PP1γ_(7–323) = His6-tagged PP1γ_(7–323) (UniProt P36873 7-323); test: ITC
His6-tagged PP1γ_(7–308) = His6-tagged PP1γ_(7–308) (UniProt P36873 7-308); test: ITC
His6-tagged PP1β_(6–327) = His6-tagged PP1β_(6–327) (UniProt P62140 6-327); test: ITC
His6-tagged PP1α_(7–300) = His6-tagged PP1α_(7–300) (UniProt P62136 7-300); test: ITC
Chain of His6-tagged PP1α_(7–300) (P62136 7-300): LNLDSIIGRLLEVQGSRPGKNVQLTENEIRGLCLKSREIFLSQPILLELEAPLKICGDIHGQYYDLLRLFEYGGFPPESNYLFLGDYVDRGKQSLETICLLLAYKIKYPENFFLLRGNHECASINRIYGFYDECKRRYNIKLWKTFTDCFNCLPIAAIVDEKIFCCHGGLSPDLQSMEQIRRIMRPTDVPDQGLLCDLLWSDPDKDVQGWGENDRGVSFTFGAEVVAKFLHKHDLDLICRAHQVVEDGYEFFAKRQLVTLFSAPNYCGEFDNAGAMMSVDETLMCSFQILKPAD

T2 sequence (P62136 7-330): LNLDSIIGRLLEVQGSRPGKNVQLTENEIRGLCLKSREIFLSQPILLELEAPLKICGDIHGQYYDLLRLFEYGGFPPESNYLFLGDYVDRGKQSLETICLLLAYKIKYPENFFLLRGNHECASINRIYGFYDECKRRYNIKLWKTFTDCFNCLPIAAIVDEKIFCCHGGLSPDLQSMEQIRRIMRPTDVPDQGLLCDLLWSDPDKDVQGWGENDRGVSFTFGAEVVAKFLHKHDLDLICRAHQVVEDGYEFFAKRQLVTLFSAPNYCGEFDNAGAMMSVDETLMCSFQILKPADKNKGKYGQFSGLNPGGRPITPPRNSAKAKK
Chain of His6-tagged PP1β_(6–327) (P62140 6-327): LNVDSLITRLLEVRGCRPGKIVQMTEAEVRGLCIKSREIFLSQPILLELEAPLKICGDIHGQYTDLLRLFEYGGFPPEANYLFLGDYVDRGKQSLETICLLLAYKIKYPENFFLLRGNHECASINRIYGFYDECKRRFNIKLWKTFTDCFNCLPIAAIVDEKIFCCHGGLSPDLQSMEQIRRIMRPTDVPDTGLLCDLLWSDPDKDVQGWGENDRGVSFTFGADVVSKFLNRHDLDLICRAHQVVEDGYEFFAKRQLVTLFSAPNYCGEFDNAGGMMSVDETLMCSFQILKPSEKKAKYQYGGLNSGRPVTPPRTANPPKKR
Chain of His6-tagged PP1γ_(7–308) (P36873 7-308): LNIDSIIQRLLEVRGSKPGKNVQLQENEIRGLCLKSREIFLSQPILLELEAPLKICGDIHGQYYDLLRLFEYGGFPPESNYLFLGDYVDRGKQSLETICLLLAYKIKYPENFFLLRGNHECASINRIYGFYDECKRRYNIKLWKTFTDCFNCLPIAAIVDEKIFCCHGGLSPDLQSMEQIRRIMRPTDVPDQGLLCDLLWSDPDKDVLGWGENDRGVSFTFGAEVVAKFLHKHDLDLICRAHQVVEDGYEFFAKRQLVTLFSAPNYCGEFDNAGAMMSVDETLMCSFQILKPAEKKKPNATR
Chain of His6-tagged PP1γ_(7–323) (P36873 7-323): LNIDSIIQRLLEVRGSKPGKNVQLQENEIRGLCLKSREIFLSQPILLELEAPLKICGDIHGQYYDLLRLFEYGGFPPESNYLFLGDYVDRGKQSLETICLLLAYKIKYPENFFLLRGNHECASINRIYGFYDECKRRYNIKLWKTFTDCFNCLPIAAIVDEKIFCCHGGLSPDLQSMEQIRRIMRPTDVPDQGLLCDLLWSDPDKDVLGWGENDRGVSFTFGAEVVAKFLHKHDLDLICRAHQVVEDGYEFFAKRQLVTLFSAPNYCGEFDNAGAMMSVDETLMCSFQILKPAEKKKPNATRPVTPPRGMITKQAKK
Chain of PP1α_(7–300) (as crystallised with GM^64–93 and microcystin-LR) (P62136 7-300): as the sequence (P62136 7-300) above

With OC[C@H]1O[C@@H]2O[C@H]3[C@H](O)[C@@H](O)[C@@H](O[C@H]4[C@H](O)[C@@H](O)[C@@H](O[C@H]5[C@H](O)[C@@H](O)[C@@H](O[C@H]6[C@H](O)[C@@H](O)[C@@H](O[C@H]7[C@H](O)[C@@H](O)[C@@H](O[C@H]1[C@H](O)[C@H]2O)O[C@@H]7CO)O[C@@H]6CO)O[C@@H]5CO)O[C@@H]4CO)O[C@@H]3CO [α-CD] the Kd (GM^CBM21) was 27600 nM.

Molecule OC[C@H]1O[C@@H]2O[C@H]3[C@H](O)[C@@H](O)[C@@H](O[C@H]4[C@H](O)[C@@H](O)[C@@H](O[C@H]5[C@H](O)[C@@H](O)[C@@H](O[C@H]6[C@H](O)[C@@H](O)[C@@H](O[C@H]7[C@H](O)[C@@H](O)[C@@H](O[C@H]8[C@H](O)[C@@H](O)[C@@H](O[C@H]1[C@H](O)[C@H]2O)O[C@@H]8CO)O[C@@H]7CO)O[C@@H]6CO)O[C@@H]5CO)O[C@@H]4CO)O[C@@H]3CO [β-CD] has a Kd (GM^CBM21) of 8200 ± 100 nM.

B1: GM^64–93 peptide (peptide)
peptide: RRVSFADNFGFNLVSVKEFDTWELPSVSTT
B1: binds [1].

B2: GM^2–237 (muscle glycogen-targeting subunit of PP1, PPP1R3A, residues 2 to 237) (domain or fragment)
chain: EPSEVPGQNSKDNFLEVPNLSDSLCEDEEVKAIFKPGFSPQPSRRGSESSEEVYVHTASSGGRRVSFADNFGFNLVSVKEFDTWELPSVSTTFELGKDAFQTEEYVLSPLFDLPASKEDLMQQLQVQKAMLESTEYVPGSTSMKGIIRVLNISFEKLVYVRMSLDDWQTHYDILAEYVPNSCDGETDQFSFKISLVPPYQKDGSKVEFCIRYETSVGTFWSNNNGTNYTLVCQKKE
Molecule B2 has a Kd (His6-tagged PP1α_(7–330) [2]) of 26.5 ± 2.3 nM and a dH (His6-tagged PP1α_(7–330) [2]) of -20.2 ± 1 kcal/mol.

B3: GM^64–105 peptide (peptide)
peptide: RRVSFADNFGFNLVSVKEFDTWELPSVSTTFELGKDAFQTEE
B3 was tested, and the Kd (His6-tagged PP1α_(7–330) [3]) was 114 ± 4 nM.

B4: GM^64–237 (domain or fragment)
chain: RRVSFADNFGFNLVSVKEFDTWELPSVSTTFELGKDAFQTEEYVLSPLFDLPASKEDLMQQLQVQKAMLESTEYVPGSTSMKGIIRVLNISFEKLVYVRMSLDDWQTHYDILAEYVPNSCDGETDQFSFKISLVPPYQKDGSKVEFCIRYETSVGTFWSNNNGTNYTLVCQKKE
B4 was tested, and the Kd (His6-tagged PP1γ_(7–323)) was 21.4 ± 11.6 nM, the dH (His6-tagged PP1γ_(7–323)) was -22.6 ± 0.1 kcal/mol and the Kd (His6-tagged PP1γ_(7–308)) was 55.7 ± 5.1 nM. For the same molecule, the dH (His6-tagged PP1γ_(7–308)) was -13.3 ± 5.2 kcal/mol, the Kd (His6-tagged PP1β_(6–327)) was 17.3 ± 4 nM and the dH (His6-tagged PP1β_(6–327)) was -15.4 ± 0.8 kcal/mol. For the same molecule, the Kd (His6-tagged PP1α_(7–330) [2]) was 20.8 ± 2.4 nM, the dH (His6-tagged PP1α_(7–330) [2]) was -34.5 ± 2.4 kcal/mol and the Kd (His6-tagged PP1α_(7–300)) was 51 ± 5.1 nM. The dH (His6-tagged PP1α_(7–300)) was -25.1 ± 0.9 kcal/mol.

— article PMC6235537 (Science Advances, 2018)
